Test [1] deals with T1, recombinant human MASP1 (amino acids 297-699, C-terminal His Tag) (human) (UniProt P48740).
T1 sequence: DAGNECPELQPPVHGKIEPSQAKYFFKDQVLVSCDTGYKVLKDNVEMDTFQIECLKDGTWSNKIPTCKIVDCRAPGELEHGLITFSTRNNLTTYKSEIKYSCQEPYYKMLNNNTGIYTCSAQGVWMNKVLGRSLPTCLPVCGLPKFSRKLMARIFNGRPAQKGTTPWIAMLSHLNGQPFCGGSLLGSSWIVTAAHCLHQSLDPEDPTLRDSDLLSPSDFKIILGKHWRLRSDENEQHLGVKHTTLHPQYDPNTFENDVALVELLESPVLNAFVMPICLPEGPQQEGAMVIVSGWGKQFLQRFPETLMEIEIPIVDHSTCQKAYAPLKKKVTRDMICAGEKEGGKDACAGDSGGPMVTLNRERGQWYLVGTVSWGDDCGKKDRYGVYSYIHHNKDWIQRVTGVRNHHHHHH
The experiment in a line: cell-based or functional assay.

Test [2] addresses recombinant human MASP2 (amino acids 297-686, C-terminal His Tag) (human) (UniProt O00187). Description: cell-based or functional assay.

Sequence of recombinant human MASP2 (amino acids 297-686, C-terminal His Tag) (human) (O00187 other isoform, or with tags, fused parts or gaps limits assumed): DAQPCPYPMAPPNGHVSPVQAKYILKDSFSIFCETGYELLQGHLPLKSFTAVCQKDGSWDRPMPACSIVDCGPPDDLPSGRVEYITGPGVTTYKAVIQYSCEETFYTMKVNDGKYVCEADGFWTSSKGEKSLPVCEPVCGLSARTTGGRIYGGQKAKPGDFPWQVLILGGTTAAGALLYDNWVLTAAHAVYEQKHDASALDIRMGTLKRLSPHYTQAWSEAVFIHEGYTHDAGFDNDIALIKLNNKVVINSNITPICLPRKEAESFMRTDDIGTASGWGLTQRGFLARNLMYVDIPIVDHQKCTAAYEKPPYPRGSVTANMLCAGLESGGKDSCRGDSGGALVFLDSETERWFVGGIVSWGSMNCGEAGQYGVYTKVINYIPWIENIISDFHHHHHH

Turning to “Example 47: A**GGIC+SRS-((tBu)A)-PPI-((N-Me)C)+-IPd** (peptide)”, in test [1], the human MASP1 IC50 is 8.2 nM. The human MASP2 IC50 in test [2] turned out to be 66 nM.

These data come from patent publication US20240010684A1, “MASP INHIBITORY COMPOUNDS AND USES THEREOF” (BAYER AKTIENGESELLSCHAFT, priority 2020, published 2024).
